Experimental data: the nanobody polyreactivity screen of Harvey et al. (2022)

Experiment: yeast display, Sf9 membrane polyspecificity reagent, FACS + sequencing; frameworks hold sequencing errors
Method in brief: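 Nanobodies from a synthetic yeast display library (Saccharomyces cerevisiae BJ5465), induced 36–48 hours with galactose, were stained 1 hour at 4 °C with 10% biotinylated, detergent-solubilized Sf9 membrane reagent, enriched on streptavidin microbeads, then FACS-sorted. Anti-HA (expression) and streptavidin (reagent binding) fluorescence set low and high (top ~1%) gates. Polyreactivity labels come from the gate of origin. Genes were colony-PCR amplified, MiSeq 2 × 250 sequenced and filtered by CDR length.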

Row | Sequence | polyreactivity (PSR sort gate)
1 | QVQLVESGGGLVQAGGSLRLSCAASGLIFPSYTMGWYRQAPGKDRELVAAITFSGDSTNYADSVKGRFTISRDNAKNTVYLQMNSLKPEDTAVYNCAASQVSDTTRFGYWGQGTQVTVSS | low polyreactivity
2 | QVQLVESGGCIVQAGGSLRLSCAASGLNLDGYAMGWYRQAPGKERELVAAITRSGGRTYYADSVKGRFTISRDNANNTVYLQMNSLKPEDTAVYYCAALGWSVRYRYDYWGQGTQVTVSS | high polyreactivity
3 | QVQLVESGGGLVQAGGSLRLSCAASGIIFGRNAMGWYRPAPGKERELVAVITGGGGRTYYADSVKGRFTISRDNAKKTVYLQMNSLKPEDTAVYYCNKDYRRNLAYFKEPGVPVDYWGQGTQVTVSS | low polyreactivity
4 | QVQLVESGGGLVQAGGSLRLSCAASGIIFARYAMGWYRQAPGKERELVAAITRRAVSTYYADSVKGRFTISRDNAKNTVYLQMNSLKPEDTAVYYCAADRASYFTYAYGYWGQGTQVTVSS | high polyreactivity
5 | QVQLVESGGGLVQAGGSHRLSCAASGRIFRGYPMGWYRPAPGKERELGAAITSRGGSTYADSVKGRFTISRDNAKNTVYLQMNSLKPEDSAVYYCNAGYRAYSAKLVFRGYPRYDYWGQGTQVTVSS | low polyreactivity
6 | QVQLVESGGGLVQAGCSLRLSFAASGFSFRRYALGSYIPAPGKERELVAAITNSGGSTYYADSVKGRFTISRDNAKNSVYLQLNSLKPEDTAVYYCVALRSACAYDYWGQGTQVTVSS | high polyreactivity
7 | QVQLVESGGGLVQAGGSLRLSCAASGSIYRYAMGWYRQAPGKERELVAAINFNGGRTYYADSVKGRFTISRDNAKNTVYLQMNSLKPEDTAVYYCAAVRSSNQGGFDYWGHGTQVTVSS | high polyreactivity
8 | QVQLVESGGGLVQAGGSLRLSCAASGNNFYNNAMGWYRQAPGKERELVATISRRGGRTYYADSVKGRFTISRDNAKNTVYLQMNSLKPEDTSVYYCNARFHGDYDYWGQGTQVTVSS | high polyreactivity
9 | QVQLVESGGGLVQAGGSLRLSCAASGFTFATYDMGLYRQAPGKERELVAAISRSGGRTYYADSVKVLFTISRDYAKNTVYLQMNSLKPEDTAVYYCAKYVPGYPYDYWGQGTQVTVSS | high polyreactivity
10 | QLQLVESGGGLVQAGGSLRLSCAASGSTFYAYAMGWYRQAPGKERELVARIRWRGGRTYYADSVKGRFTISRDNAKNTVYLRMNSLKPEDTAVYYCAADLSRAGGGYWGQGTQVTVSS | high polyreactivity
11 | QVQLVESGGGLVQAGGSLRLSCAPSGGTFLSNVMVWYRQAPGKERELVAAISSRGGSTYFADSVKGRFTISRDNAKNNVYFQMNSLKPVDTAVYYCNVRAAHYKDRQYDYWGQGTQGTVSS | high polyreactivity
12 | QVQLVESGGGLVQAGGSLRLSCAASGRTFVNYAMGWYRQAPWKERELVAAITWSSGRTYYADSVKGRFTISRDNAKNTVYLQMNSLKPEDTAVYYCAAVGRYSGYDYWGQGTQVTVSS | high polyreactivity
13 | QVQLVESGGGLVQAGGSLRLSCAASGFSFRYYTMGWYRPAPGKERELVARITWSGRITDYADSVKGRFTISRDNPKNTVYLQMNSLKPEDTAVSYCNAERRWAAYDYCGQGTQVTVSS | high polyreactivity
14 | QVQLVESGGGLVQAGCSLRLSCAACGSIFRAYAMGWYRQAPGKERELVADISRSGGSTYYADSVKGRFTISRDNAKNTVYLQMNSLKPEDTAFYYCAASYLGGQWRALGYDYWGQGTQVTVSS | low polyreactivity
15 | QVQLVESGGGLVQAGGSLRLSSAASGSIFSQNAMVWYTQAPGKERELVASISSGDSTTYADSVKGRFTISRDNAKNTVYLQMNSLKPEDTAVYYCNAYRYNALPWRYVGYDYWGQGTQVTVSS | low polyreactivity
16 | QVQLVESGGGLLQAGGSLRVSCAASGRTFLRYAMGWSIKAPGKERELVAGIDSSGGNTYYADSVKGRFTISRDTAKKYVYLQINSLKPEDTAVYYCAPRRSCKYRGGYYWGQGTQVTVSS | high polyreactivity
17 | QVQLVESGGGLVQAGGRLRLSCAASGRIFVRYVMGWYRQAPGQERALVAAISSSGGSTYYADSVKGRYTISRDTAKKTVYLQMNSLKPEDTAVYYCATDLIDKYFLPYDYWGQGTQVTVSS | low polyreactivity
18 | QVQLVESGGGLVQAGGSLRLSCAASGFTFGYYAMGWYRQAPGKERELVAAISKRGGSTYYADSVKGRFTISRDNAKNTVYLQMNSLKPEDTAVYYCATRYTGYPFYGYDYWGQGTQVTVSS | high polyreactivity
19 | QVQLVESGGGLVQAGGSLRLSCAASGSIFEEYAMGWYRQAPGKERELVARIDESGGSTYYADSVKGRFTISRDNAKNTVYLQMHSLKPEDSAVYYCAAVVTAQAYAYFTYGYDYWGQGTQVTVSS | low polyreactivity
20 | QVQLVASGGGLVQAGGSLRLSSAASGYIFAPNAMGWYRQAPGKERELVAAITFSGGSTSYADSVKGRFTISRDNAKNTVYLQMNSLKPEDTAVYYCNRDDAGIMDYWGLGTQVTVSS | low polyreactivity
21 | QVQLVESGGGLVQAGGSLRLTCAASGSIFRRNAMGWYRQAPGKERELVAAISWSGGDTYYADSVKGRFTISRDNAKNTVYLQMNSLKPEDTAVYYCAAEYYRPYYGESYDYWGQGTQVTVSS | high polyreactivity
22 | QVQLVESGGGLVQAGGSLRLSCAASGFTFALYAMGWYRQAPGKERELVAAITSGGSTNYADSVKGRFTISRDNAKNTVYLLMNSLKPEDTAVYYCAAVPYYRYYSLKGRNNYNYWGQGTQVTVSS | high polyreactivity

Row | Sequence | polyreactivity (PSR sort gate)
23 | QVQLVESGVGLVQAGGSLRLSCAASGRIFERYAMGWYRQAPGKERELVAAIRSGGSTKYADSVKGRFTISRGNAKNTVYLQMNSLKPEDTAVYYCAAVIHYGDGYWGQGTQVTVSS | low polyreactivity
24 | QVQHVESGGVIVQAGGSHRLSCAASGHIFFYYTMGWYRQAPGKERELVAGITIGGSTNYADSVKGRFTISRDTAKNTVYLQMNSLKPEDTAVYYCNVVKYVYIYSYWEYYYWGQGTQVTVSS | low polyreactivity
25 | QVQLVESGGGLVQAGGSLRLSCAASGRTFPYYTMGWYIQAPGKERELVAAIDGSGDNTYYADSVKGRFTISRDYAKNTVYLQLNSLKPEDNAVYYCTAEQWWSLDYWGQGTQVTVSS | low polyreactivity
26 | QVQLVESGGALVQEAGSLRLRCAASGSIFDYKGMRWSRPAPGKERELVAAITSSGGSTYYADSVKGRFSISRDNAKNTDYLQMNSLIPEVSAFYYCAVDILYFPASYATQPVDYWGQGTQVTVSS | low polyreactivity
27 | QVQLVDSGGGLVQAGGSLRLSCAASGSIFRYYAMGWYRQAPGKEREFVAAINTNDAGTYYADSVKGRFTISRDNAKNTVYLQMNSLKPEDTAVYYCAADTGYPFWYDYWGQGTQVTVSS | high polyreactivity
28 | QVQLVESGGGLVQAGGSLRLSCAASGFIFYKYAMGWYRQAPGKERELVARISISGGRTYYADSVKGRFPISRDNAKNTVYLQMNSLKPEDTAVYYCATSPWWYGYAAYGMDYWGQGTQVTVSS | low polyreactivity
29 | QVQHVESGGGLVQARGSLRLTCAASGLILSSNAMGWYRQAPGKERELVAAITWDGDRTYADSVKGRFTISRDNAKNTVYLQRNSLKPEDTAVYYCAADKQYYWYDWSYDYWGQGTQVTVSS | low polyreactivity
30 | QVQLVESGGGLVQAGGSLRLSCAASGFIFRKYAMGWYRQAPGTERELVAAIRQRGGTTYYADSVKGRFTISRDNAKNTVSLQMNSLKPEDTAVNYCAAPYSSAYKYDYWGQGTQVTVSS | high polyreactivity
31 | QVQLVESGGGLVQAGGSLRLSCAASGFIFVFYDMGWYRQAPGKERELVAGITRNDGSTYYADSVKGRFKISRDNAKNTVYLQMNSLKPEDTAVYYCAAESAGSYLDYYWAYGYWGQGTQVTVSS | low polyreactivity
32 | QVQLVESGGGLVQAGGSLRLSCAASGFIFSENAMGWYRQAPGKERELVAAISDGGGSTYYADSVKGRFTISRDNAKNTVYLQMNSLKPEDTAVYYCNAVYHPKGPSGYGYWGQGTQVTVSS | low polyreactivity
33 | QVQLVESGGGLVQAGGSLRLSCAASGSIFSGYAMGWYRQAPGKERELVAAITGGGSTNYADSVKGRFTISRDNAKNTVYLQMTSLKPEDTAVYYCAAAPVSLPDYGYWGQGTQVTVSS | low polyreactivity
34 | QVQLVESGGGLVQAGGSLRLSCAASGSTFVWYAMGRYRLAPGKERELVAVIDWSGGSTSYADSVKGRFTISRDNAKNTVYLQMNSLKPEDTAVYYCNKGSSLFHWYYHWGQGTQVTVSS | low polyreactivity
35 | QVQLVESGGGLVQAGGSLRLSCAASGLTFPFYVMGWYRQAPGKERELVAAISASGASTYYADSVKGRFTISRDNAKNTVYLQMNSLKPEDTAVYYCAALGYGFSYRYDYWGQGTQVTVSS | high polyreactivity
36 | QVQLVESGGGLVQAGGSLRLSCAASGRIFRYYAMGWYRQAPGKERELVAAISYSGGRTYYADSVKGRFTISRDNAKNTVYLQMNSLKPEDTAVYYCNARARSRKFYYWGQGTQVTVSS | high polyreactivity
37 | QVQLVESGGGLVQAGGSLRLSCAASGFTFAVYAMGWYRQAPGKERELVAAINRGGGSTYYADSVKGRFTISRDNAKNTVYLQMNSLKPEDTAVYYCNKRYRVWFDYWGQGTQVTLSS | high polyreactivity
38 | QVQLVESGGGLVQAGGSLRLSCADSGRIFYYYTMGWYRQAPGKERELVARINSSGSTNLRRLCEGALHNFTRQCEEYRLFTDEQPETGRYRVYYCNADTKRSSREYDYWGQGTQVTVSS | low polyreactivity
39 | QVQLVESGGGLVQAGGSLRLSCAASGSTFSAYTMGWYRQAPGKERELVARITNGGSTYYADSVKGRFTISRDNAKNTVYLQMNSLKPEDTAVYYCAAQLGWWGSGYWGQGTQVTVSS | high polyreactivity
40 | QVQLVESGGGLVQAGGSLRLSCAASGSTFGWYAMGWYRQAPGKERELVASISSGGSTNYADSVKGRFTISRDNAKNTVYLQMNSLKPEDTAVYYCAARGGYWWYRYGYWGQGTQVTVSS | high polyreactivity
41 | QVQLVESGGGLVQAGGSLRLSCAASGNPFTWYTMGWYRPAPGKERDLVAVSTSDGSKYYADSVKGRFTISRDNAKNTVYLQMNSLKPEDTAVYYCNAGGGTNYGSGYWYGYYYWGQGTQVTVSS | low polyreactivity
42 | QVQLVESGGGLVQAGGSLRLSCAASGFTFTANAMGWYRQAPGKERELVAAITRNGGRTYYADSVKGRFTLSRDNAKNNVYLQMNSLKPEDTAVYYCAKPNSQRIHDDYDYWGQGTQVTVSS | high polyreactivity
43 | QVQLVESGGGLVQAGCSLRLSCAASGSVFTVYSMGWYRQAPGKERELVAAITRNGGRTYYADSVKVRFTISRDNSKNTVYLQMKILKPEDTAVYSCAATGLYSRLDYWGQGTQVTVSS | high polyreactivity
